Data set [1] concerns the molecule itself. Briefly: cryo-EM structure.
Data set [2] deals with the molecule itself. Put plainly: cryo-EM structure. This is another data set of the same source.
Data set [3] deals with the molecule itself. Put plainly: SEC + other: negative-staining electron microscopy.
Data set [4] concerns the molecule itself. Briefly: negative-staining electron microscopy.

This is an account of results in publication doi:10.1101/2021.02.24.432666 (bioRxiv, 2021).

In general, stoichiometry N refers to a count of units in the complex or per binding partner.

“And” between values parts separate entries of the source, which are not always exact repeats. Identical values can stand only once. Like-named read-outs stand apart in the source and are kept apart here.

B1: yeast TRiC subunit CCT2 (natural protein)
chain: MSVQIFGDQVTEERAENARLSAFVGAIAVGDLVKSTLGPKGMDKLLQSASSNTCMVTNDGATILKSIPLDNPAAKVLVNISKVQDDEVGDGTTSVTVLSAELLREAEKLIDQSKIHPQTIIEGYRLASAAALDALTKAAVDNSHDKTMFREDLIHIAKTTLSSKILSQDKDHFAELATNAILRLKGSTNLEHIQIIKILGGKLSDSFLDEGFILAKKFGNNQPKRIENAKILIANTTLDTDKVKIFGTKFKVDSTAKLAQLEKAEREKMKNKIAKISKFGINTFINRQLIYDYPEQLFTDLGINSIEHADFEGVERLALVTGGEVVSTFDEPSKCKLGECDVIEEIMLGEQPFLKFSGCKAGEACTIVLRGATDQTLDEAERSLHDALSVLSQTTKETRTVLGGGCAEMVMSKAVDTEAQNIDGKKSLAVEAFARALRQLPTILADNAGFDSSELVSKLRSSIYNGISTSGLDLNNGTIADMRQLGIVESYKLKRAVVSSASEAAEVLLRVDNIIRARPRTANRQHM
With B1, in data set [1], the “stoichiometry N” value is 8 subunits per ring (double ring).

B2: yeast TRiC subunit CCT6 (natural protein)
chain: not shown
Turning to B2, the “stoichiometry N” value is 8 subunits per ring and 9 subunits per ring in data set [2]; 8 subunits per ring (double ring) and 9 subunits per ring (double ring) in data set [1].

B3: yeast TRiC subunit CCT3 (natural protein, UniProt P39077 1-534, looked up)
chain: MQAPVVFMNASQERTTGRQAQISNITAAKAVADVIRTCLGPKAMLKMLLDPMGGLVLTNDGHAILREIDVAHPAAKSMLELSRTQDEEVGDGTTTVIILAGEILAQCAPYLIEKNIHPVIIIQALKKALTDALEVIKQVSKPVDVENDAAMKKLIQASIGTKYVIHWSEKMCELALDAVKTVRKDLGQTVEGEPNFEIDIKRYVRVEKIPGGDVLDSRVLKGVLLNKDVVHPKMSRHIENPRVVLLDCPLEYKKGESQTNIEIEKEEDWNRILQIEEEQVQLMCEQILAVRPTLVITEKGVSDLAQHYLLKGGCSVLRRVKKSDNNRIARVTGATIVNRVEDLKESDVGTNCGLFKVEMIGDEYFSFLDNCKEPKACTIMLRGGSKDILNEIDRNLQDAMAVARNVMLSPSLSPGGGATEMAVSVKLAEKAKQLEGIQQWPYQAVADAMECIPRTLIQNAGGDPIRLLSQLRAKHAQGNFTTGIDGDKGKIVDMVSYGIWEPEVIKQQSVKTAIESACLLLRVDDIVSGVRKQE
In the case of B3, the binding result in data set [3] is given as “binds”.

B4: yeast TRiC subunit CCT8 (natural protein, UniProt P47079 1-568, looked up)
chain: MSLRLPQNPNAGLFKQGYNSYSNADGQIIKSIAAIRELHQMCLTSMGPCGRNKIIVNHLGKIIITNDAATMLRELDIVHPAVKVLVMATEQQKIDMGDGTNLVMILAGELLNVSEKLISMGLSAVEIIQGYNMARKFTLKELDEMVVGEITDKNDKNELLKMIKPVISSKKYGSEDILSELVSEAVSHVLPVAQQAGEIPYFNVDSIRVVKIMGGSLSNSTVIKGMVFNREPEGHVKSLSEDKKHKVAVFTCPLDIANTETKGTVLLHNAQEMLDFSKGEEKQIDAMMKEIADMGVECIVAGAGVGELALHYLNRYGILVLKVPSKFELRRLCRVCGATPLPRLGAPTPEELGLVETVKTMEIGGDRVTVFKQEQGEISRTSTIILRGATQNNLDDIERAIDDGVAAVKGLMKPSGGKLLPGAGATEIELISRITKYGERTPGLLQLAIKQFAVAFEVVPRTLAETAGLDVNEVLPNLYAAHNVTEPGAVKTDHLYKGVDIDGESDEGVKDIREENIYDMLATKKFAINVATEAATTVLSIDQIIMAKKAGGPRAPQGPRPGNWDQED
In the case of B4, the binding result in data set [3] is on record as “binds”.

B5: yeast TRiC subunit CCT1 (natural protein)
chain: not shown
On to B5, for which the results for the “stoichiometry N” value in data set [2] and in data set [1] were 9 subunit pairs and 8 subunits per ring (double ring), respectively.

B6: yeast TRiC subunit CCT7 (natural protein, UniProt P42943 1-550, looked up)
chain: MNFGSQTPTIVVLKEGTDASQGKGQIISNINACVAVQEALKPTLGPLGSDILIVTSNQKTTISNDGATILKLLDVVHPAAKTLVDISRAQDAEVGDGTTSVTILAGELMKEAKPFLEEGISSHLIMKGYRKAVSLAVEKINELAVDITSEKSSGRELLERCARTAMSSKLIHNNADFFVKMCVDAVLSLDRNDLDDKLIGIKKIPGGAMEESLFINGVAFKKTFSYAGFEQQPKKFNNPKILSLNVELELKAEKDNAEVRVEHVEDYQAIVDAEWQLIFEKLRQVEETGANIVLSKLPIGDLATQFFADRNIFCAGRVSADDMNRVIQAVGGSIQSTTSDIKPEHLGTCALFEEMQIGSERYNLFQGCPQAKTCTLLLRGGAEQVIAEVERSLHDAIMIVKRALQNKLIVAGGGATEMEVSKCLRDYSKTIAGKQQMIINAFAKALEVIPRQLCENAGFDAIEILNKLRLAHSKGEKWYGVVFETENIGDNFAKFVWEPALVKINALNSATEATNLILSVDETITNKGSESANAGMMPPQGAGRGRGMPM
B6: in data set [3], the binding result is “binds”.

B7: yeast TRiC subunit CCT4 (natural protein, UniProt P39078 1-528, looked up)
chain: MSAKVPSNATFKNKEKPQEVRKANIIAARSVADAIRTSLGPKGMDKMIKTSRGEIIISNDGHTILKQMAILHPVARMLVEVSAAQDSEAGDGTTSVVILTGALLGAAERLLNKGIHPTIIADSFQSAAKRSVDILLEMCHKVSLSDREQLVRAASTSLSSKIVSQYSSFLAPLAVDSVLKISDENSKNVDLNDIRLVKKVGGTIDDTEMIDGVVLTQTAIKSAGGPTRKEKAKIGLIQFQISPPKPDTENNIIVNDYRQMDKILKEERAYLLNICKKIKKAKCNVLLIQKSILRDAVNDLALHFLSKLNIMVVKDIEREEIEFLSKGLGCKPIADIELFTEDRLGSADLVEEIDSDGSKIVRVTGIRNNNARPTVSVVIRGANNMIIDETERSLHDALCVIRCLVKERGLIAGGGAPEIEISRRLSKEARSMEGVQAFIWQEFASALEVIPTTLAENAGLNSIKVVTELRSKHENGELNDGISVRRSGTTNTYEEHILQPVLVSTSAITLASECVKSILRIDDIAFSR
Turning to B7, in data set [3], the binding result is listed as “binds”.

B8: yeast CCT5 with the N-terminal 24 amino acids truncated (CCT5^ΔNT) (domain or fragment, UniProt P40413 25-562, looked up)
chain: MGRPFIIVKDQGNKKRQHGLEAKKSHILAARSVASIIKTSLGPRGLDKILISPDGEITITNDGATILSQMELDNEIAKLLVQLSKSQDDEIGDGTTGVVVLASALLDQALELIQKGIHPIKIANGFDEAAKLAISKLEETCDDISASNDELFRDFLLRAAKTSLGSKIVSKDHDRFAEMAVEAVINVMDKDRKDVDFDLIKMQGRVGGSISDSKLINGVILDKDFSHPQMPKCVLPKEGSDGVKLAILTCPFEPPKPKTKHKLDISSVEEYQKLQTYEQDKFKEMIDDVKKAGADVVICQWGFDDEANHLLLQNDLPAVRWVGGQELEHIAISTNGRIVPRFQDLSKDKLGTCSRIYEQEFGTTKDRMLIIEQSKETKTVTCFVRGSNKMIVDEAERALHDSLCVVRNLVKDSRVVYGGGAAEVTMSLAVSEEADKQRGIDQYAFRGFAQALDTIPMTLAENSGLDPIGTLSTLKSKQLKEKISNIGVDCLGYGSNDMKELFVVDPFIGKKQQILLATQLCRMILKIDNVIISGKDEY
With B8, in data set [4], the binding result is on record as “binds”.
